Experimental data published in US9062100B2, “Anti-human TROP-2 antibody having anti-tumor activity in vivo” (LIVTECH, INC., dated 2015).
Where no end group is shown, it is not given here.

Assays:
Table 7 peptide No. 29 = molecular target: T1, Table 7 peptide No. 29 (human, not fully specified); test: PEPSCAN CLIPS peptide ELISA
T1 peptide: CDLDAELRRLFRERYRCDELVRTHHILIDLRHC

Table 7 peptide No. 33 = molecular target: T2, Table 7 peptide No. 33 (human, not fully specified); test: PEPSCAN CLIPS peptide ELISA
T2 peptide: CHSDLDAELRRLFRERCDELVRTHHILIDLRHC

Table 7 peptide No. 23 = molecular target: T3, Table 7 peptide No. 23 (human, not fully specified); test: PEPSCAN CLIPS peptide ELISA
T3 peptide: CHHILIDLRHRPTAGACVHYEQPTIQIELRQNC

Table 7 peptide No. 32 = molecular target: T4, Table 7 peptide No. 32 (human, not fully specified); test: PEPSCAN CLIPS peptide ELISA
T4 peptide: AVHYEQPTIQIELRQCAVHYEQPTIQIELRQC

Table 7 peptide No. 9 = molecular target: T5, Table 7 peptide No. 9 (human, not fully specified); test: PEPSCAN CLIPS peptide ELISA
T5 peptide: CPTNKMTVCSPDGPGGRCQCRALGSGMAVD

Table 7 peptide No. 28 = molecular target: T6, Table 7 peptide No. 28 (human, not fully specified); test: PEPSCAN CLIPS peptide ELISA
T6 peptide: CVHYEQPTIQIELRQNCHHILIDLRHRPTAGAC

Table 7 peptide No. 21 = molecular target: T7, Table 7 peptide No. 21 (human); test: PEPSCAN CLIPS peptide ELISA
T7 peptide: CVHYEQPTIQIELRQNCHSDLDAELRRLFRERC

Table 7 peptide No. 19 = molecular target: T8, Table 7 peptide No. 19 (human); test: PEPSCAN CLIPS peptide ELISA
T8 peptide: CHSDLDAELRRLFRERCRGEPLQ

Table 7 peptide No. 25 = molecular target: T9, Table 7 peptide No. 25 (human, not fully specified); test: PEPSCAN CLIPS peptide ELISA
T9 peptide: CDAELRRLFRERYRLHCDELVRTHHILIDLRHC

Table 7 peptide No. 30 = molecular target: T10, Table 7 peptide No. 30 (human, not fully specified); test: PEPSCAN CLIPS peptide ELISA
T10 peptide: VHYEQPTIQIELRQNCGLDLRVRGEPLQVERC

Table 7 peptide No. 10 = molecular target: T11, Table 7 peptide No. 10 (human); test: PEPSCAN CLIPS peptide ELISA
T11 peptide: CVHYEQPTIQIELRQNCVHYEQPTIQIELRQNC

Table 7 peptide No. 27 = molecular target: T12, Table 7 peptide No. 27 (human, not fully specified); test: PEPSCAN CLIPS peptide ELISA
T12 peptide: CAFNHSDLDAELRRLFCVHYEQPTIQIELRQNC

Table 7 peptide No. 1 = molecular target: T13, Table 7 peptide No. 1 (human); test: PEPSCAN CLIPS peptide ELISA
T13 peptide: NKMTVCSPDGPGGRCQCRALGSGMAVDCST

Table 7 peptide No. 7 = molecular target: T14, Table 7 peptide No. 7 (human, not fully specified); test: PEPSCAN CLIPS peptide ELISA
T14 peptide: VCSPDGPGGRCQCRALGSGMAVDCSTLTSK

Table 7 peptide No. 2 = molecular target: T15, Table 7 peptide No. 2 (human); test: PEPSCAN CLIPS peptide ELISA
T15 peptide: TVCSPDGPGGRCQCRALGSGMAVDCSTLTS

Table 7 peptide No. 3 = molecular target: T16, Table 7 peptide No. 3 (human, not fully specified); test: PEPSCAN CLIPS peptide ELISA
T16 peptide: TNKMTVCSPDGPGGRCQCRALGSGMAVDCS

Table 7 peptide No. 4 = molecular target: T17, Table 7 peptide No. 4 (human, not fully specified); test: PEPSCAN CLIPS peptide ELISA
T17 peptide: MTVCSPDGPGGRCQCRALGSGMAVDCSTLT

Table 7 peptide No. 15 = molecular target: T18, Table 7 peptide No. 15 (human); test: PEPSCAN CLIPS peptide ELISA
T18 peptide: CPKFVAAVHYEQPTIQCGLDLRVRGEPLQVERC

Table 7 peptide No. 24 = molecular target: T19, Table 7 peptide No. 24 (human, not fully specified); test: PEPSCAN CLIPS peptide ELISA
T19 peptide: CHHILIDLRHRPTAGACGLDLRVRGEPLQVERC

Table 7 peptide No. 8 = molecular target: T20, Table 7 peptide No. 8 (human, not fully specified); test: PEPSCAN CLIPS peptide ELISA
T20 peptide: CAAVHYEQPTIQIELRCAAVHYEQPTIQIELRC

Table 7 peptide No. 13 = molecular target: T21, Table 7 peptide No. 13 (human); test: PEPSCAN CLIPS peptide ELISA
T21 peptide: AVHYEQPTIQIELRQ

Table 7 peptide No. 20 = molecular target: T22, Table 7 peptide No. 20 (human); test: PEPSCAN CLIPS peptide ELISA
T22 peptide: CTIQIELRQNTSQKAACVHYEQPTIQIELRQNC

Table 7 peptide No. 18 = molecular target: T23, Table 7 peptide No. 18 (human); test: PEPSCAN CLIPS peptide ELISA
T23 peptide: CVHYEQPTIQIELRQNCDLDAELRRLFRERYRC

Table 7 peptide No. 26 = molecular target: T24, Table 7 peptide No. 26 (human, not fully specified; cysteine pairing not given here); test: PEPSCAN CLIPS peptide ELISA
T24 peptide: CVHYEQPTIQIELRQNC

Table 7 peptide No. 12 = molecular target: T25, Table 7 peptide No. 12 (human); test: PEPSCAN CLIPS peptide ELISA
T25 peptide: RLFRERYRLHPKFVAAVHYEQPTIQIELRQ

Table 7 peptide No. 22 = molecular target: T26, Table 7 peptide No. 22 (human); test: PEPSCAN CLIPS peptide ELISA
T26 peptide: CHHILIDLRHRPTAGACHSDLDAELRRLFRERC

Table 7 peptide No. 16 = molecular target: T27, Table 7 peptide No. 16 (human); test: PEPSCAN CLIPS peptide ELISA
T27 peptide: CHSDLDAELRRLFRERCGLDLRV

Table 7 peptide No. 14 = molecular target: T28, Table 7 peptide No. 14 (human); test: PEPSCAN CLIPS peptide ELISA
T28 peptide: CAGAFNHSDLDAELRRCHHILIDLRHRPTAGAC

Table 7 peptide No. 6 = molecular target: T29, Table 7 peptide No. 6 (human, not fully specified); test: PEPSCAN CLIPS peptide ELISA
T29 peptide: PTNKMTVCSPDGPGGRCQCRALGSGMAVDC

Table 7 peptide No. 11 = molecular target: T30, Table 7 peptide No. 11 (human); test: PEPSCAN CLIPS peptide ELISA
T30 peptide: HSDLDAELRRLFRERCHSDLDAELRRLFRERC

Table 7 peptide No. 31 = molecular target: T31, Table 7 peptide No. 31 (human, not fully specified); test: PEPSCAN CLIPS peptide ELISA
T31 peptide: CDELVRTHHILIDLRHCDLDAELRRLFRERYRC

Table 7 peptide No. 17 = molecular target: T32, Table 7 peptide No. 17 (human); test: PEPSCAN CLIPS peptide ELISA
T32 peptide: FQGRGGLDLRVRGEP

human TROP-2 (hTROP-2) [1] = molecular target: T33, human TROP-2 (hTROP-2) (human); test: FACS on PK-59 cells
T33 chain: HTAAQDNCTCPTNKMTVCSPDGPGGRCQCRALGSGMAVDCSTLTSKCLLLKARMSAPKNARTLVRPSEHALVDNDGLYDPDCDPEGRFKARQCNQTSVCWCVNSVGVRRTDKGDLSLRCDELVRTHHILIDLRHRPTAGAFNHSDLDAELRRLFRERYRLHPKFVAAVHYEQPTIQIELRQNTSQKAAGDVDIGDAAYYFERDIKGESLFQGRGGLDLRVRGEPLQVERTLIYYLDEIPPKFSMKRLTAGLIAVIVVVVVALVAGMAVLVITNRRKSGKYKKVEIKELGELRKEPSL

human TROP-2 (hTROP-2) [2] = molecular target: T33, human TROP-2 (hTROP-2); test: FACS on BxPC-3 cells
[3] = molecular target: T34, recombinant protein of the extracellular region of hTROP-2 (human); test: ELISA of free antibody after equilibration with antigen in solution
T34 sequence: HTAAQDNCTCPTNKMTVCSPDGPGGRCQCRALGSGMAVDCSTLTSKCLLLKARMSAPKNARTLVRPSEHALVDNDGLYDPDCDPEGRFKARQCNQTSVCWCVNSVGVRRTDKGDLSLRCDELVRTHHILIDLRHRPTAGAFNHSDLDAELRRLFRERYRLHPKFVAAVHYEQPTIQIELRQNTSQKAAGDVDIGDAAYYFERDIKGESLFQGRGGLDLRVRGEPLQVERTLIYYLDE

B1: anti-hTROP-2 monoclonal antibody K5-70 (antibody, V domains shown)
VH: QVQLQQPGAELVRPGASVKLSCKASGYTFTIYWINWVKQRPGQGLEWIGNIYPSDSYTNYNQKFKDKATLTVDKSSSTAYMQLSSPTSEDSAVYYCTRTSMADYWGQGTTLTVSS
VL: DILLTQSPAILSVSPGERVSFSCRASQSIGTSIHWYQQRTNGSPRLLIKYASESISGIPSRFSGSGSGTDFTLSINSVESEDIADYYCQQSNSWPFTFGSGTKLEIK
B1 was tested, and the “binding of K5-70” value (Table 7 peptide No. 29) was 472, the “binding of K5-70” value (Table 7 peptide No. 33) was 466 and the “binding of K5-70” value (Table 7 peptide No. 23) was 489. For the same binder, the “binding of K5-70” value (Table 7 peptide No. 32) was 468, the “binding of K5-70” value (Table 7 peptide No. 9) was 839 and the “binding of K5-70” value (Table 7 peptide No. 28) was 473. The “binding of K5-70” value (Table 7 peptide No. 21) was 511, the “binding of K5-70” value (Table 7 peptide No. 19) was 519 and the “binding of K5-70” value (Table 7 peptide No. 25) was 483. For the same binder, the “binding of K5-70” value (Table 7 peptide No. 30) was 470, the “binding of K5-70” value (Table 7 peptide No. 10) was 825 and the “binding of K5-70” value (Table 7 peptide No. 27) was 478. The “binding of K5-70” value (Table 7 peptide No. 1) was 2740, the “binding of K5-70” value (Table 7 peptide No. 7) was 932 and the “binding of K5-70” value (Table 7 peptide No. 2) was 2600. For the same binder, the “binding of K5-70” value (Table 7 peptide No. 3) was 2560, the “binding of K5-70” value (Table 7 peptide No. 4) was 2400 and the “binding of K5-70” value (Table 7 peptide No. 15) was 579. For the same binder, the “binding of K5-70” value (Table 7 peptide No. 24) was 488, the “binding of K5-70” value (Table 7 peptide No. 8) was 876 and the “binding of K5-70” value (Table 7 peptide No. 13) was 642. The “binding of K5-70” value (Table 7 peptide No. 20) was 513, the “binding of K5-70” value (Table 7 peptide No. 18) was 524 and the “binding of K5-70” value (Table 7 peptide No. 26) was 483. For the same binder, the “binding of K5-70” value (Table 7 peptide No. 12) was 687, the “binding of K5-70” value (Table 7 peptide No. 22) was 489 and the “binding of K5-70” value (Table 7 peptide No. 16) was 538. For the same binder, the “binding of K5-70” value (Table 7 peptide No. 14) was 624, the “binding of K5-70” value (Table 7 peptide No. 6) was 1390 and the “binding of K5-70” value (Table 7 peptide No. 11) was 725. The “binding of K5-70” value (Table 7 peptide No. 31) was 469, the “binding of K5-70” value (Table 7 peptide No. 17) was 538 and the “mean fluorescence intensity, times that with PE-labeled anti-mouse IgG only” value (human TROP-2 (hTROP-2) [1]) was 44 times. The “mean fluorescence intensity, times that with PE-labeled anti-mouse IgG only” value (human TROP-2 (hTROP-2) [2]) was 45 times and the Kd [3] was 6.8 pM.
